Residue numbers refer to the chain shown, from its start. Numbers in names are those of the source. Values belong to the binder of their own block, whether it stands above or below them.
What was measured:
[1] = molecular target: T1, cynomolgus monkey FcγRIIIaS extracellular domain with C-terminal His-tag (cynomolgus monkey, UniProt A3RFZ7 21-206 (rhesus entry)); assay: SPR (BIACORE); KD of SG1 / KD of variant
T1 construct: also called cyno FcgRIIIaS; cynoFcγRIIIaS; not shown: His-tag added to the C-terminus
Method: (§1) The kinetic analysis of interactions between these antibodies and FcγR was carried out using BIACORE® T200 or BIACORE® 4000 (GE Healthcare). HBS-EP+ (GE Healthcare) was used as the running buffer, and the measurement temperature was set to 25° C. […] After the measurement, the antibody captured on the chip was washed off by allowing reaction with 10 mM glycine-HCl, pH1.5 and 25 mM NaOH so that the chip was regenerated and used repeatedly. The sensorgrams obtained as measurement results were analyzed by the 1:1 Langmuir binding model using the BIACORE® Evaluation Software to calculate the binding rate constant ka (L/mol/s) and dissociation rate constant kd (1/s), and the dissociation constant KD (mol/L) was calculated from these values. […] Regarding such interactions, KD values were calculated using the following 1:1 binding model described in BIACORE® T100 Software Handbook BR1006-48 Edition AE.

[2] = molecular target: T1, cynomolgus monkey FcγRIIIaS …; assay: SPR (BIACORE), antibody captured, FcgR analyte
Method: as §1

[3] = molecular target: T2, cynomolgus monkey FcγRIIIaS extracellular domain with C-terminal His-tag (cynomolgus monkey, UniProt Q8SPW2 21-206 at identity 1.00)); assay: SPR, KD(parent SG1)/KD(variant)
T2 construct: also called cyno FcgRIIIaS; cynoFcγRIIIaS
T2 chain: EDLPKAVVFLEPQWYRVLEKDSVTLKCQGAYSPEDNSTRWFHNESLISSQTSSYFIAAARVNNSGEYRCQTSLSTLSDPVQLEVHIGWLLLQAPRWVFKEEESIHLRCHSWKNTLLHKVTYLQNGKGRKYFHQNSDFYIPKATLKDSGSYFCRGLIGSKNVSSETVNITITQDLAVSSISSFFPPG

[4] = molecular target: T3, human FcγRIIaR extracellular domain with C-terminal His-tag (human, UniProt P12318 34-217); assay: SPR (BIACORE), antibody captured, FcgR analyte
T3 construct: also called human FcgRIIaR; FcγRIIa type R; not shown: His-tag added to the C-terminus
T3 chain: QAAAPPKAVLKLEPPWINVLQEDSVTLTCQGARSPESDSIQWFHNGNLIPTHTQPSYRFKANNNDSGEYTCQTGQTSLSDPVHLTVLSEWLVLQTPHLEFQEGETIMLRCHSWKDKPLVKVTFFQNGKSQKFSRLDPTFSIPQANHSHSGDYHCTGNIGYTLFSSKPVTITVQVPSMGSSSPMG
Method: as §1

[5] = molecular target: T4, cynomolgus monkey FcγRIIb extracellular domain with C-terminal His-tag (cynomolgus monkey); assay: SPR Biacore, antibody captured, FcgR analyte
T4 construct: also called cyno FcgRIIb; cynoFcγRIIb; not shown: His-tag added to C-terminus
T4 chain: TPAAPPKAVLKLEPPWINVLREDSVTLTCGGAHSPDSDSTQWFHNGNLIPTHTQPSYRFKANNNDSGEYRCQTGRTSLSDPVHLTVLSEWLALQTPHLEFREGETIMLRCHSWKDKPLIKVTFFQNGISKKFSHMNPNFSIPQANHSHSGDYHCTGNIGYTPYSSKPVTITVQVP

[6] = molecular target: T5, cynomolgus monkey FcγRIIIaS extracellular domain with C-terminal His-tag (cynomolgus monkey, UniProt A3RFZ7 21-206 (rhesus entry)); assay: SPR Biacore, antibody captured, FcgR analyte
T5 construct: also called cyno FcgRIIIaS; cynoFcγRIIIaS; not shown: His-tag added to C-terminus

[7] = molecular target: T6, cynomolgus monkey FcγRIIa3 extracellular domain with C-terminal His-tag (cynomolgus monkey); assay: SPR (BIACORE), antibody captured, FcgR analyte
T6 construct: also called cyno FcgRIIa3; cynoFcγRIIa3; not shown: His-tag added to the C-terminus
T6 chain: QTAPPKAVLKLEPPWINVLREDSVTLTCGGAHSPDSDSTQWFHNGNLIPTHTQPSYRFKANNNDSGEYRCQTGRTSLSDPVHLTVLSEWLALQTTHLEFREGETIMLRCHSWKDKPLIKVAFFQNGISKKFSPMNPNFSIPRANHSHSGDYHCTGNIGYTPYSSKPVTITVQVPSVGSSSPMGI
Method: as §1

[8] = molecular target: T7, cynomolgus monkey FcγRIIa3 extracellular domain with C-terminal His-tag (cynomolgus monkey); assay: SPR Biacore, antibody captured, FcgR analyte
T7 construct: also called cyno FcgRIIa3; cynoFcγRIIa3; not shown: His-tag added to C-terminus
T7 chain: T6 chain

[9] = molecular target: T8, human FcγRIIb extracellular domain with C-terminal His-tag (human, UniProt P31994 43-217); assay: SPR Biacore, antibody captured, FcgR analyte
T8 construct: also called human FcgRIIb; not shown: His-tag added to C-terminus
T8 sequence: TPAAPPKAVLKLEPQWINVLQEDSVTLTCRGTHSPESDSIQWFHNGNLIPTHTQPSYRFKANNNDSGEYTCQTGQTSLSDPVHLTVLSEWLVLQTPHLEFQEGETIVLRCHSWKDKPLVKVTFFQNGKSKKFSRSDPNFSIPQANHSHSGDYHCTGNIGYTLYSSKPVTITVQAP

[10] = molecular target: T9, human FcγRIIaH extracellular domain, His-tagged (human, UniProt P12318 34-217); assay: SPR (Biacore), 25C, FcgR bound per antibody captured
T9 construct: also called human FcgRIIaH; FcγRIIa type H
T9 sequence: T3 chain with R134H

[11] = molecular target: T10, human FcγRIIIaV extracellular domain, His-tagged (human, UniProt P08637 17-208); assay: as above
T10 construct: also called human FcgRIIIaV
T10 sequence (P08637 17-208 F176V): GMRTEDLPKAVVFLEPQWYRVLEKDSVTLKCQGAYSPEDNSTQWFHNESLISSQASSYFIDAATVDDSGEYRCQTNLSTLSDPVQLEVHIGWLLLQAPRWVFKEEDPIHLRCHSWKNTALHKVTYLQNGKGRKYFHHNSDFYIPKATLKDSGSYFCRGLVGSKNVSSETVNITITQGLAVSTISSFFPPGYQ

- KD fold (SG1 = 1) [1]: 0.05 fold
- Kd [2]: 32 µM
B1: M103205H795-MY001/M103202L889-SK1 (antibody, human IgG1, kappa, name in EU numbering)
heavy: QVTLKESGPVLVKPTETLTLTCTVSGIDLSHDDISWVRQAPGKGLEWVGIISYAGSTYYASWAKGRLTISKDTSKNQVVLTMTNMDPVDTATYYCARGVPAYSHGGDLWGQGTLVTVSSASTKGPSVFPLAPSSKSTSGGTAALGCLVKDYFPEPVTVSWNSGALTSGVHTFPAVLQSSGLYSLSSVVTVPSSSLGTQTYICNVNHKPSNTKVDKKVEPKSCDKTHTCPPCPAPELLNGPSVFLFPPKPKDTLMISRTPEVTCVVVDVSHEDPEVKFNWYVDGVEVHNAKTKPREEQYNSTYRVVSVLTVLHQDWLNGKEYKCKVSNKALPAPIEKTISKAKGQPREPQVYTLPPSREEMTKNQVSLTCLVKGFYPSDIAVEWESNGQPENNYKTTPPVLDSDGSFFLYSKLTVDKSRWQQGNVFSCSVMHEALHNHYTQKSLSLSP
light: DIVMTQSPATLSLSPGERATLSCTSSQSVYHANWLSWFQQKPGQPPKLLIYWASTLAYGVPSRFSGSGSGTDFTLTISSLQPEDAATYYCAGGYGGGRYAFGQGTKVEIKRTVAAPSVFIFPPSDEQLKSGTASVVCLLNNFYPREAKVQWKVDNALQSGNSQESVTEQDSKDSTYSLSSTLTLSKADYEKHKVYACEVTHQGLSSPVTKSFNRGEC
notes: Fc variant of MS1032LO06-SG1; positions in EU numbering

- KD fold (SG1 = 1) [3]: 1 fold
B2: MS1032LO19-SG1 (antibody, human IgG1, kappa)
heavy: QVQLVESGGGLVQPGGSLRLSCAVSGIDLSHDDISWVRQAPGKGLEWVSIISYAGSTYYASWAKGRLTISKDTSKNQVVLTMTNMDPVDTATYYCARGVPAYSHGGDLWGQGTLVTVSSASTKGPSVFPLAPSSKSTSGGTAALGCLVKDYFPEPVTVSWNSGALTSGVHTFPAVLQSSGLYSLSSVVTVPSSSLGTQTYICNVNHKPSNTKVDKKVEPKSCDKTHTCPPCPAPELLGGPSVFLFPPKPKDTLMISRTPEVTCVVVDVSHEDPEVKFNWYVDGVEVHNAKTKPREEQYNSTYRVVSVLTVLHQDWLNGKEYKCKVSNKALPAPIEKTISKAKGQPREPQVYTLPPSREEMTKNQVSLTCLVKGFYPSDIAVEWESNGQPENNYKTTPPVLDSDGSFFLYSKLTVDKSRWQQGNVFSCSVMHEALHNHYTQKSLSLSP
light: B1 light with S25T, A32E
notes: tied to rows r13/r31 by row order only; also called MS103240H795-SG1; copies: 2 + 2

- KD fold (SG1 = 1) [3]: 0.09 fold
B3: MS1032LO19-SG1081 (antibody, name in EU numbering)
heavy: QVQLVESGGGLVQPGGSLRLSCAVSGIDLSHDDISWVRQAPGKGLEWVSIISYAGSTYYASWAKGRLTISKDTSKNQVVLTMTNMDPVDTATYYCARGVPAYSHGGDLWGQGTLVTVSSASTKGPSVFPLAPSSKSTSGGTAALGCLVKDYFPEPVTVSWNSGALTSGVHTFPAVLQSSGLYSLSSVVTVPSSSLGTQTYICNVNHKPSNTKVDKKVEPKSCDKTHTCPPCPAPELWNGPSVFLFPPKPKDTLMISRTPEVTCVVVDVSDEDPEVKFNWYVDGVEVHNAKTKPREELYNSTYRVVSVLTVLHRDWLNGKEYKCKVSNTALPKPIEKTISKAKGQRREPQVYTLPPSREEMTKNQVSLTCLVKGFYPSDIAVEWESNGQPENNYKTTPPVLDSDGSFFLYSKLTVDKSRWQQGNVFSCSVMHEALHAHYTRKELSLSP
light: B1 light with S25T, A32E
notes: tied to rows r19/r37 by row order only; also called MS103240H795-SG1081

- Kd [2]: 4.4 µM
- Kd [4]: 2.7 µM
B4: M103205H795-MY200/M103202L889-SK1 (antibody)
heavy: QVTLKESGPVLVKPTETLTLTCTVSGIDLSHDDISWVRQAPGKGLEWVGIISYAGSTYYASWAKGRLTISKDTSKNQVVLTMTNMDPVDTATYYCARGVPAYSHGGDLWGQGTLVTVSSASTKGPSVFPLAPSSKSTSGGTAALGCLVKDYFPEPVTVSWNSGALTSGVHTFPAVLQSSGLYSLSSVVTVPSSSLGTQTYICNVNHKPSNTKVDKKVEPKSCDKTHTCPPCPAPELLNGPVVFLFPPKPKDTLMISRTPEVTCVVVDVSEEDPEVKFNWYVDGVEVHNAKTKPREEQYNSTYRVVSVLTVLHQDWLNGKEYKCKVSNKALPKPIEKTISKAKGQPREPQVYTLPPSREEMTKNQVSLTCLVKGFYPSDIAVEWESNGQPENNYKTTPPVLDSDGSFFLYSKLTVDKSRWQQGNVFSCSVMHEALHNHYTQKSLSLSP
light: B1 light
notes: Fc variant of MS1032LO06-SG1; EU numbering; printed S2369V is probably S239V

- KD fold (SG1 = 1) [5]: 3.2 fold
- KD fold (SG1 = 1) [6]: 0.05 fold
B5: M103205H795-MY350/M103202L889-SK1 (antibody, human IgG1, kappa, name in EU numbering)
heavy: B4 heavy with L237W, V241S, P398M
light: B1 light
notes: substitutions in EU numbering, introduced into M103205H795-SG1

- Kd [7]: 4.8 µM
- Kd [2]: 9.3 µM
- Kd [4]: 1.1 µM
B6: M103205H795-MY440/M103202L889-SK1 (antibody, human IgG1, kappa, name in EU numbering)
heavy: B4 heavy with L237W, V241S, E270D, Q297L
light: B1 light
notes: as for B1

- KD fold (SG1 = 1) [1]: 0.08 fold
- Kd [2]: 4.5 µM
- Kd [4]: 7.8 µM
B7: M103205H795-MY049/M103202L889-SK1 (antibody, human IgG1, kappa, name in EU numbering)
heavy: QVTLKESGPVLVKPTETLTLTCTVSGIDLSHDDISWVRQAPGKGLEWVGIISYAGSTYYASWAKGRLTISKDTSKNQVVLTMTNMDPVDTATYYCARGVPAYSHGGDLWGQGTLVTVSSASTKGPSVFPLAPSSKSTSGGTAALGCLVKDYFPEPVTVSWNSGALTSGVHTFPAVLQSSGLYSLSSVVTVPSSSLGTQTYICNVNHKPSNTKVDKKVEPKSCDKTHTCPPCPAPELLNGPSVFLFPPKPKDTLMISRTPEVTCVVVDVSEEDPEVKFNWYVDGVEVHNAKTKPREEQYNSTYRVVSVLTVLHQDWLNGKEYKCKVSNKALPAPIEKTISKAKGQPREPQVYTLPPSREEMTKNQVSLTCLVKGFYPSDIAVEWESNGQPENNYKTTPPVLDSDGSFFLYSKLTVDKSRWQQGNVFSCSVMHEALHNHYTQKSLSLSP
light: B1 light
notes: as for B1

- KD fold (SG1 = 1) [8]: 1.1 fold
- KD fold (SG1 = 1) [6]: 0.09 fold
- Kd [6]: 4.1 µM
- Kd [9]: 1.4 µM
B8: M103205H795-MY181/M103202L889-SK1 (antibody, human IgG1, kappa, name in EU numbering)
heavy: B4 heavy with V241S, K332A, P398T
light: B1 light
notes: EU numbering

- KD fold (SG1 = 1) [3]: 0.09 fold
B9: MS1032LO19-SG1077 (antibody, name in EU numbering)
heavy: B3 heavy with M430L, Y438T
light: B1 light with S25T, A32E
notes: tied to rows r16/r34 by row order only; also called MS103240H795-SG1077

- Binding to human FcgRs (parent B3 = 100) [10]: 77
- Binding to human FcgRs (parent B3 = 100) [11]: 0
B10: GpH7-B3 G237Y / GpL16-k0 (antibody, human IgG1, kappa)
heavy: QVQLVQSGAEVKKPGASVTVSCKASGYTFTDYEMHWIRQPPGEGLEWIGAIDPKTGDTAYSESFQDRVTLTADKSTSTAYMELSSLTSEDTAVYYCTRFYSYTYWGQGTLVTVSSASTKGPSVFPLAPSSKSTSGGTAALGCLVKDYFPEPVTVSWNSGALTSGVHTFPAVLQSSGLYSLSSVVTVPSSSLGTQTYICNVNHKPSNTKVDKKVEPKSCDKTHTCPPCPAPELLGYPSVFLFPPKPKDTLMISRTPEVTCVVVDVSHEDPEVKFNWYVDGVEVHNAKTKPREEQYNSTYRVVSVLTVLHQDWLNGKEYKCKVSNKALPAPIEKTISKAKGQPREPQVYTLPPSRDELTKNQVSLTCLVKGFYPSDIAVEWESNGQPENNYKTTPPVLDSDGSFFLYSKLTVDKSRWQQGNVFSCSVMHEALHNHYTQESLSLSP
light: DIVMTQSPLSLPVTPGEPASISCQASESLVHSNRNTYLHWYLQKPGQSPQLLIYKVSNRFSGVPDRFSGSGSGTDFTLKISRVEAEDVGVYYCSQNTHVPPTFGQGTKVEIERTVAAPSVFIFPPSDEQLKSGTASVVCLLNNFYPREAKVQWKVDNALQSGNSQESVTEQDSKDSTYSLSSTLTLSKADYEKHKVYACEVTHQGLSSPVTKSFNRGEC
notes: also called B3 variant G237Y

- Binding to human FcgRs (parent B3 = 100) [10]: 76
- Binding to human FcgRs (parent B3 = 100) [11]: 1
B11: GpH7-B3 N325I / GpL16-k0 (antibody, human IgG1, kappa)
heavy: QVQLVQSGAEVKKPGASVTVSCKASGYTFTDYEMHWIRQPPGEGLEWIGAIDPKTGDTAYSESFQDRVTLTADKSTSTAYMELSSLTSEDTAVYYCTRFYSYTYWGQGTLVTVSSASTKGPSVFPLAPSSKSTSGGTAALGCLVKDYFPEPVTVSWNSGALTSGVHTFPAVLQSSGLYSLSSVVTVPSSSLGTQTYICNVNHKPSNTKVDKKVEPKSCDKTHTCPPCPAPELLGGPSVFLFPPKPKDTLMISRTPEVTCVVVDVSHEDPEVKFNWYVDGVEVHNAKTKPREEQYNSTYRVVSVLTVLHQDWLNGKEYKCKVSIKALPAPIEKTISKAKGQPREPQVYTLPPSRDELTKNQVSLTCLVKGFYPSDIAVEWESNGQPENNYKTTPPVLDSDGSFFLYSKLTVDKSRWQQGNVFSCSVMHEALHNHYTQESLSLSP
light: B10 light
notes: also called B3 variant N325I

- Binding to human FcgRs (parent B3 = 100) [10]: 86
- Binding to human FcgRs (parent B3 = 100) [11]: 2
B12: GpH7-B3 P238M / GpL16-k0 (antibody, human IgG1, kappa)
heavy: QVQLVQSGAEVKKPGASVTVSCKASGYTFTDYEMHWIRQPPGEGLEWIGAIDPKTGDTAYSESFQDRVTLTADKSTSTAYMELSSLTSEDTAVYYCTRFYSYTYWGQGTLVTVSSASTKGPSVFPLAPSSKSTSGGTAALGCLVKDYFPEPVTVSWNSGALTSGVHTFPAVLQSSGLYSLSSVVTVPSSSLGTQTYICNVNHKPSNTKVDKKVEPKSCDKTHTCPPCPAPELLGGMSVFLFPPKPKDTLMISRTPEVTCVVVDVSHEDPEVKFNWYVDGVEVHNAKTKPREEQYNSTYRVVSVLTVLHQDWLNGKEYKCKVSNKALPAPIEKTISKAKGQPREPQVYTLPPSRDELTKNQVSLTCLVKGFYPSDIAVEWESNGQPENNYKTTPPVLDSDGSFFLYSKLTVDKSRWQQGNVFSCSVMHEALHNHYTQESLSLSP
light: B10 light
notes: also called B3 variant P238M
